Experimental findings from paper PMC12463490 are described below.

For this data set, the target named is T1, rCCN2 (cellular communication network factor 2) (UniProt P29279).
T1 sequence: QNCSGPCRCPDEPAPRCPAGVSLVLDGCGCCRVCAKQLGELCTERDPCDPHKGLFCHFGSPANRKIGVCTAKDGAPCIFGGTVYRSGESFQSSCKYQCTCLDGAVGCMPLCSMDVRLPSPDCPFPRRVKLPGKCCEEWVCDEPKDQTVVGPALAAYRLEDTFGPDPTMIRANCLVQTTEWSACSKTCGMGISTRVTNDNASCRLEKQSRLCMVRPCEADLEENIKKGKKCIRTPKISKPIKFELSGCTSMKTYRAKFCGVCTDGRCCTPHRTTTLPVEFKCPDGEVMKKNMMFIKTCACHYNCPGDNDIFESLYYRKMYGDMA
Briefly: EMSA. The note with it: 20 mM HEPES (pH not stated), 45 mM KCl, 10 mM NaCl, 1 mM DTT, 0.1% NP-40, 10% glycerol, 4 C overnight; 4% polyacrylamide gel in TBE. (In general: Mobility shift assays separate free from complexed probe on a gel.)

As to “GCACACATGCTTCCTGTGGTGACTGGGCGCTTCCTGTTTTCTCAGGCACCGGCCTTGCTGCTGCCGATGTGGAAACAGGGGCAGCTGCAGCCAGGGCGGCTCCAGGCTGGGCACTCTGACCCTGCCCAGAAGGGAGTGAGGGGGCCCACCACCCTTAGACTTACGATCTAGACAGTGGGT (double strand) [Spi1 proximal promoter probe (178 bp)]”, the binding result is “binds”.
